Where two headings read alike, the source gives them in different places.
Assays:
[1] = target: T1, human IGF-1R, native, on cells (MCF-7, hIGF-1R transfected cells, tumor sections, primary normal cells) (human, UniProt P08069 31-1367); assay: cell-based or functional assay
[2] = target: T1, human IGF-1R, native, on cells (MCF-7, …); assay: cell-based or functional assay; remark: listed apart in the source
[3] = target: monkey IGF-1R on COS-7 cells (monkey (African green monkey)); assay: cell-based or functional assay
[4] = target: T2, soluble recombinant human IGF-1R hetero-tetramer with C-terminal 10-His tag (R&D Systems 305-GR-50) (human, UniProt P08069 31-736; P08069 741-932); assay: SPR Biacore X100, His-captured soluble h-IGF-1R (about 600 RU), mean of 4 experiments
T2 construct: domain: alpha chain;domain: extracellular domain of the beta chain; Captured on an anti-His antibody chip; also called recombinant soluble human-IGF-1R; h-IGF-1R
Protocol: The dissociation constants (KD) of the binding of the antibodies on a recombinant soluble human-IGF-1R were defined by the ratio between the dissociation rate (koff) and the association rate (kₒₙ). The kinetic experiments were run on a Biacore X100 device using a CM5 sensor chip activated by a mouse anti-Tag His monoclobnal antibody. Around 12000 RU of antibodies are chemically grafted on the carboxymethyldextan matrix using the amine kit chemistry.
The experiments were carried out at 25° C. with a flow rate of 30 μl/min using the HBS-EP+ buffer (GE Healthcare) as the running and sample dilution buffer.
The single cycle kinetic scheme was used to define the kinetic parameters of the binding of the anti-IGF-1R antibodies on a soluble recombinant human IGF-1R captured by its two C-terminal 10 Histidine-tag. [0637] 1—A solution of a soluble recombinant version of the human IGF-1R hetero-tetramere: 2a chains and the extracellular domains of 2β chains expressed with an additional C-terminal 10-His tag (R&D Systems catalogue number 305-GR-50) was injected during one minute on the second flowcell at a concentration of 10 μg/ml. […] [0638] 2—After the capture phase, either the running buffer was injected 5 times (90 s each injection) or a growing range of 5 concentrations of one of the six antibodies was injected (90 s each injection) on both flowcells. At the end of the fifth injection the running buffer was passed during 5 minutes in order to define the dissociation rate. [0639] 3—The surface was then generated with an injection of a 10 mM Glycine, HCl pH 1.5 buffer during 45 s.

[5] = target: T3, recombinant human Insulin Receptor protein (R&D Systems, Cat 1544-IR/CF) (human, UniProt P06213-2 28-944); assay: direct ELISA, coated rhIR
T3 construct: Bought protein coated on ELISA plates; also called rhIR; rh Insulin R
Protocol: In all direct ELISAs, proteins of interest were immobilized (1 μg/ml) to the bottom of each well. After saturation, hybridoma supernatants were added to the wells. After a 1-hour incubation period and a washing step, a solution of goat anti-mouse IgG—HRP labelled polyclonal antibody was used for detection, prior to the addition of the TMB substrate. The reaction was stopped with a 1M H₂SO₄ solution before reading the OD with a spectrophotometer at a 450 nm wavelength.

[6] = target: T1, human IGF-1R, native, on cells (MCF-7, …); assay: cell-based or functional assay; remark: listed apart in the source
[7] = target: T1, human IGF-1R, native, on cells (MCF-7, …); assay: cell-based or functional assay; remark: listed apart in the source

T3 sequence (P06213 other isoform, or with tags, fused parts or gaps limits assumed): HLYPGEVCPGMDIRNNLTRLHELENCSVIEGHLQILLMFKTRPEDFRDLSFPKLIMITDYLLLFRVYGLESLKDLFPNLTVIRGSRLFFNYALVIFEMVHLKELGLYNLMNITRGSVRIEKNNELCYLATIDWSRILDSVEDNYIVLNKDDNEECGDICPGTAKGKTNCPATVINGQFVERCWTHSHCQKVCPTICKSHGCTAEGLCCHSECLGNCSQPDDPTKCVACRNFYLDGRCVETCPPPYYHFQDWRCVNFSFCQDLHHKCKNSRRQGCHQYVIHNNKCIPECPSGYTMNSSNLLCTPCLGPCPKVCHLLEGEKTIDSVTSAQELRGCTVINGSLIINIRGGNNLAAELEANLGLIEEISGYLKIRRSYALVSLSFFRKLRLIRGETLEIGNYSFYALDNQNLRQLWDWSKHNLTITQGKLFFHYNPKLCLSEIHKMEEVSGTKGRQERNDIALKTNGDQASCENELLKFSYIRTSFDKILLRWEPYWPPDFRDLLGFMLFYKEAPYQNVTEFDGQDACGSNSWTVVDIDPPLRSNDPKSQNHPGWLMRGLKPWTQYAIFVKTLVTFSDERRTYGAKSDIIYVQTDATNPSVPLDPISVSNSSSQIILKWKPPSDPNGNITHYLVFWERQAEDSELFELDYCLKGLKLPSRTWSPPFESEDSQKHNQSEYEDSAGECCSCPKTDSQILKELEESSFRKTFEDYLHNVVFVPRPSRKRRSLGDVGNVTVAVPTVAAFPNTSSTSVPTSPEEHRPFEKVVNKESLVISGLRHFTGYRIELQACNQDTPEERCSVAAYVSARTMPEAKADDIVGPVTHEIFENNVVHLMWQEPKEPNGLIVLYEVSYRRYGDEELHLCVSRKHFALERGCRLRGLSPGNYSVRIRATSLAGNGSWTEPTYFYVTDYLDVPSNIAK

Binder | phosphorylation of hIGF-1R, % of phosphorylation induced by IGF-1 (MCF-7 cells, 10 µg/ml) [1] [%] | ΔMFI (MCF-7, 10 µg/ml, 4 h) [2] [MFI] | % internalisation (monkey IGF-1R) [3] [%] | ΔMFI (monkey IGF-1R internalization) [3] [MFI] | Kd [4] [nM] | decrease of IGF1-induced phosphorylation of hIGF-1R (MCF-7 cells) [1] [%] | binding result [5] | MFI 37°C (MCF7 internalisation assay) [6] [MFI] | % internalization (MCF-7, 10 µg/ml, 4 h) [7] [%] | ΔMFI (MCF-7, 10 µg/ml, 4 h) [7] [MFI]
c213B10 (antibody, human IgG1, kappa, also called chimeric 213B10) heavy: not shown light: DIQMTQTTSSLSASLGDRVTISCRASQDISKYLNWYQQQPDGTIKLLIYYTSRLHSGVPSRFSGRGSGTDYSLTITNLEQEDIATYFCQQGSALPYTFGGGTKLEIKRTVAAPSVFIFPPSDEQLKSGTASVVCLLNNFYPREAKVQWKVDNALQSGNSQESVTEQDSKDSTYSLSSTLTLSKADYEKHKVYACEVTHQGLSSPVTKSFNRGEC | < 10 | 369 | 73 | 101 | ~0.03 | – | – | – | – | –
m212A11 (murine 212A11, hybridoma CNCM I-4773) (antibody, V domains shown) VH: QVQLQQSGPELVKPGASVKMSCKASGYTFTSYYIHWVKQRPGQGLEWIGWIWPGDGSTKYNEKFKGKTTLTADKSSSTAYMFLSSLTSEDSAVYFCASPMITPNYAMDYWGQGASVTVSS VL: DIQMTQTTSSLSASLGDRVTISCRASQDINKYLNWYQQQPDGTVKLLIYYTSRLHSGVPSRFSGRGSGTDYSLTISNLEQEDIATYFCQQGSTLPYTFGGGTKLEIK | – | – | 73 | 83 | – | 80 | – | – | – | –
816C12 (antibody, V domains shown, Murine monoclonal antibody from hybridoma CNCM I-4894; also called m816C12; I-4894) VH: EVQLQQSGPELVKPGASVKMSCKASGHTFTSYVLHWMKRKPGQGLEWIGYINPHNDVTKYNENFKGKATLTSDKYSSTVYMEVSSLTSEDSAVYYCVSTAYYGNGRYFDVWGAGTTVTVSS VL: DIQMTQTTSSLSASLGDRVTISCRASQDINNYLNWYQQKPDGTVKLLIYYTSRLHSGVSSRFSGSGSGTDYSLTISNLEQEDIATYFCQQGNTLPWTFGGGTKLEIK | – | – | – | – | – | – | no binding (tested: 5 µg/ml) | – | – | –
c212A11 (antibody, human IgG1, kappa, V domains shown, also called chimeric 212A11) VH: QVQLQQSGPELVKPGASVKMSCKASGYTFTSYYIHWVKQRPGQGLEWIGWIWPGDGSTKYNEKFKGKTTLTADKSSSTAYMFLSSLTSEDSAVYFCASPMITPNYAMDYWGQGASVTVSS VL: DIQMTQTTSSLSASLGDRVTISCRASQDINKYLNWYQQQPDGTVKLLIYYTSRLHSGVPSRFSGRGSGTDYSLTISNLEQEDIATYFCQQGSTLPYTFGGGTKLEIKR | < 10 | 322 | 75 | 98 | ~0.03 | – | – | – | – | –
m208F2 (murine 208F2, hybridoma CNCM I-4757) (antibody, V domains shown) VH: QVQLQQSGPELVKPGASVKMSCKASGYTFTSYYIYWVKQRPGQGLEWLGWIWPGDGSTKYNEKFKDKTTLTADKSSNTAYMFLSSLTSEDSAVYFCASPMITPNYAMDYWGQGASVTVSS VL: DIQMTQTTSSLSASLGDRVTISCRASQDISKYLNWYQQQPDGTIKLLIYYTSRLHSGVPSRFSGRGSGTDYSLTISNVEQEDIATYFCQQGSTLPYTFGGGTKLEIK | – | – | 74 | 53 | – | 80 | – | 94 | 88 | 294
c219D6 (antibody, human IgG1, kappa, V domains shown, also called chimeric 219D6) VH: QVQLQQSGPELVKPGDSVKMSCKASGYSFTSYFIHWVKQRPGQGLEWIGWIWPGDGSTKYNEKFKGKTTLTTDKSSSTAYMFLNSLTSEDSAVYFCASPMITPNYAMDYWGQGASVTVSS VL: DIQMTQTTSSLSASLGDRVTISCRASQDISKYLNWYQQQPDGTVKLLIYYTSRLHSGVPSRFSGRGSGTDYSLTISNLEQEDIATYFCQQGSTLPYTFGGGTKLEIKR | < 10 | 353 | 74 | 102 | ~0.03 | – | – | – | – | –
m213B10 (murine 213B10, hybridoma CNCM I-4774) (antibody, V domains shown) VH: QVQLQQSGSELVKPGASVKMSCKASGYTFTSYYIHWVKQRPGQGLEWIGWIWPGDGSTKYNERFKGKTTLTADKSSSTAYMFLSSLTSEDSAVYFCASPMITPNYAMDYWGQGASVTVSS VL: DIQMTQTTSSLSASLGDRVTISCRASQDISKYLNWYQQQPDGTIKLLIYYTSRLHSGVPSRFSGRGSGTDYSLTITNLEQEDIATYFCQQGSALPYTFGGGTKLEIK | – | – | 74 | 84 | – | 80 | – | 115 | – | –
m219D6 (murine 219D6, hybridoma CNCM I-4736) (antibody, V domains shown) VH: QVQLQQSGPELVKPGDSVKMSCKASGYSFTSYFIHWVKQRPGQGLEWIGWIWPGDGSTKYNEKFKGKTTLTTDKSSSTAYMFLNSLTSEDSAVYFCASPMITPNYAMDYWGQGASVTVSS VL: DIQMTQTTSSLSASLGDRVTISCRASQDISKYLNWYQQQPDGTVKLLIYYTSRLHSGVPSRFSGRGSGTDYSLTISNLEQEDIATYFCQQGSTLPYTFGGGTKLEIK | – | – | 71 | 80 | – | 80 | – | – | – | –
c214F8 (antibody, human IgG1, kappa, also called chimeric 214F8) heavy: not shown light: DIQMTQTTSSLSASLGDRVTFSCRASQDISKYLNWYQQQPDGTIKLLIYYTSRLHSGVPSRFSGRGSGTDYSLTITNLEQEDIATYFCQQGSALPYTFGGGTKLEIKRTVAAPSVFIFPPSDEQLKSGTASVVCLLNNFYPREAKVQWKVDNALQSGNSQESVTEQDSKDSTYSLSSTLTLSKADYEKHKVYACEVTHQGLSSPVTKSFNRGEC | < 10 | 403 | 72 | 98 | ~0.03 | – | – | – | – | –
m214F8 (murine 214F8, hybridoma CNCM I-4775) (antibody, V domains shown) VH: QVQLQQSGSELVKPGASVKLSCKASGYTFTSYYIHWVKQRPGQGLEWIGWIWPGDGSTKYNERFKGKTTLTADKSSSTAYMFLSSLTSEDSAVYFCASPMITPNYAMDYWGQGASVTVSS VL: DIQMTQTTSSLSASLGDRVTFSCRASQDISKYLNWYQQQPDGTIKLLIYYTSRLHSGVPSRFSGRGSGTDYSLTITNLEQEDIATYFCQQGSALPYTFGGGTKLEIK | – | – | 71 | 76 | – | 80 | – | 111 | – | –
810D12 (antibody, V domains shown, Murine monoclonal antibody from hybridoma CNCM I-4893; also called m810D12; I-4893) VH: EVQLQQSGPELVKPGASVKMSCKASGHTFTSYMLHWVKQKPGQGLEWLGFINPYNDVTKYNENFKGKATLTSDKSSSTAYMELNSLTSEDSAVYFCVTTAYYGNGRYFDVWGAGTTVTVSS VL: DIQMTQTTSSLSASLGDRVTISCRASQDITNYLTWYQQKPDGTVKVLIYYTSRLYSGVPSRFSGSGSGSDYSLTINNLEQEDIATYFCQQGYSLPWTFGGGTKLEIK | – | – | – | – | – | – | no binding (tested: 5 µg/ml) | – | – | –

Reference: patent publication US20190202901A1 (PIERRE FABRE MEDICAMENT, published 2019)
